Laboratory results taken from the nanobody polyreactivity screen of Harvey et al. (2022).

Experiment: yeast display, Sf9 membrane polyspecificity reagent, FACS + sequencing; frameworks hold sequencing errors
How it was run: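 Polyreactivity labels are assigned by the sorting gate from which each nanobody was recovered. The gates were low and high (top ~1%), set on anti-HA fluorescence for expression and streptavidin fluorescence for reagent binding. Before sorting, galactose-induced (36–48 hours) yeast display cells were stained for 1 hour at 4 °C with 10% biotinylated, detergent-solubilized Sf9 membrane reagent.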

Sequence	polyreactivity (PSR sort gate)
QVQLVESGGGLVQAGGSLRLSCAASGNTFSDYAMGWYRQAPGKERELVAAISSSGVRTYYADSVKVRFTISRDNAKNTVYLHMISLNPEDTAVYYCAADNYYYRFVAAMDYWGQGTQVTVSS	high polyreactivity
QVQLVESGGGLVQAGGSLRLSCAASGNTFSSYAMGWYRQAPGKVRELVAAISRRGGSTYYADSVKRRFTISRDHAKTTVYLQMNSLKPEDTAVYYCAADGTGFRSLRYDYWGQGTQVTVSS	high polyreactivity
QVQLVESGGGLVQAGGSLRLSCAASGNTFSWYAMGWYRQAPGKERELVAVIRDGSTYYADSVKGRFTISRDNAKNTVYLQMNRLKPEDTAVYYCRYDIWVWWSGAYDYWGQGTQVTVSS	low polyreactivity
QVQLVESGGGLVQAGGSLRLSCAASGNTFTFNAMGWYRQAPGKERELVAAINRGDSTNYADSVKGRFTISRDNAKNTVYLQMNSLKPEDTAVYYCAAGTLYWNYNRYDLYYYWGQGTQVTVSS	high polyreactivity
QVQLVESGGGLVQAGGSLRLSCAASGNTFTFYAMGWYRQAPGTERELVASITGRGGSTYYADSVKGRFTISRDNAKNTVYLQMNSLKPEDTAVYYCNADYNSFRYRPPTTRDYWGQGTQVTVSS	low polyreactivity
QVQLVESGGGLVQAGGSLRLSCAASGNTFTKYAMGWYRQAPGKERELVADITIGGSTYYADSVKGRFTISRDNAKNTVYLQMNSLKPEDTAVYYCNADVVVQYYFTYYRVFTYDYWGQGTQVTVSS	low polyreactivity
QVQLVESGGGLVQAGGSLRLSCAASGNTFTKYAMGWYRQAPGKERELVAGITRGGSTNYADSVKGRFTISRDNAKNTVYLQMNSLKPEDTAVYYCNARPVYGSRFYSAVRMEYWGQGTQVNVSS	low polyreactivity
QVQLVESGGGLVQAGGSLRLSCAASGNTFVPYAMGWYRQAPGKEREFVAAISSTSGSTYYADSVKGRFTISRDNAKNTVYLQMNSLTPEDTAVYYCAAANHKCSRMDYWGQGTQVTVSS	high polyreactivity
QVQLVESGGGLVQAGGSLRLSCAASGNTFVPYVMGWYRQAPGKERELVAAISRRGGSTRYADSVKGRFTISRDNAKNTVYLQMNSLNPEDTAVYYCAADGYVFALQRSRGVDFGYEYWGQGTQVTVSS	high polyreactivity
QVQLVESGGGLVQAGGSLRLSCAASGNTFVQNDMGWYRQAPGKEREFVAAITWIGGSTRYADSVKGRFTISRDNAKNTVYLQMNSLKPEDTAVYYCAVKPVGWPRYRVDYWGQGTQVTVSS	high polyreactivity
QVQLVESGGGLVQAGGSLRLSCAASGNTFVQNTMGWYRPATGKETELVAAISTRGGSTYYADSLKGRFTISRDNAKNTVYLQMNSLKPVDTAVYYCAARSKVRRSYDYWGQGTQVTVSS	high polyreactivity
QVQLVESGGGLVQAGGSLRLSCAASGNTFVTKAMGWYRQAPGKERELVAAINSSGGSTYYADSVKGRFTISRDNAKNTVYLQMNSLKPEDTAVYYCAADPLGITSGYGYWGQGTQVTVSS	low polyreactivity
QVQLVESGGGLVQAGGSLRLSCAASGNTFVTYTMGWYRQAPGKERELVADISSGGSTYYADSVKGRFTISRDNAKNTVYLQMNSLKPEDTAVYYCAVQQAVFRSYYIYHRYYWGQGTQVTVSS	high polyreactivity
QVQLVESGGGLVQAGGSLRLSCAASGNTFVYNDMGWYRQAPGKERELVADIRYSGSTYYADSVKGRFTISRDNAKNTVYLQMNSLKPEDTAVYYCAVDSYYFLKDPISYGLYYYWGQGSQVTVSS	low polyreactivity
QVQLVESGGGLVQAGGSLRLSCAASGNTFWGNAMGWYIQAPGKERELVAAITSGGNTNYADSVKGRFTISRDNAKNTVYLQMNSLKPEDTAVYYCNVDLKAWLPDGGSVDYWGQGTQVTVSS	low polyreactivity
QVQLVESGGGLVQAGGSLRLSCAASGNTFYGYAMGWYRQAPGKERELVASITLSGDSTYYADSVKGRFTISRDNAKKTVYLQMNSLKPEDTAVYYCAGVYTYPLGYYHYTYDYWGQGTQVTVSS	low polyreactivity
QVQLVESGGGLVQAGGSLRLSCAASGNTFYGYAMGWYRQAPGKERELVASITLSGDSTYYADSVKGRFTISRDNAKNTVYLQMNSLKPEDTAVYSCAGVYTYPLGYYHYTYDYWGQGTQVTVSS	low polyreactivity
QVQLVESGGGLVQAGGSLRLSCAASGNTFYHYAMGWYRQAPGKERELVAAITWTGDSTYYADSVKGRFTISRDNAKNTVYLQMNSLKPEDTAVYYCNRVGYQSMNYWGQGTQVTVSS	low polyreactivity
QVQLVESGGGLVQAGGSLRLSCAASGNTFYQYAMGWYRQAPGKERELVAAIDWSGGSTYADSVKGRFTISRDNAKNTVYLQMNSLKPEDTAVYYCNASVKPSNVWSRGYDYWGQGTQVTVSS	low polyreactivity
QVQLVESGGGLVQAGGSLRLSCAASGNTFYQYAMGWYRQAPGTERELVAAISSSGGSTYYADSVKGRFTISRDNAKKTVYLQMNSLKPEDTAVYYCATDKSYGYYYWGQGTQVTVSS	low polyreactivity
QVQLVESGGGLVQAGGSLRLSCAASGNTFYRYAMGWYRQAPGKEREFVAGITSRGGSTSYADSVKGRFTISRDNAKNTVYLQMNSLKPEDTAVYYCAKKYFRPLRSYDYWGQGTQVTVSS	high polyreactivity
QVQLVESGGGLVQAGGSLRLSCAASGNTFYSNAMRWYRQAPGKERELVAAISTSGGSTFYADSVKGRFTISRDNAKNTVYLQMNSLKPEDTAVYYCAARSLRGHRYRYDYWGQGTQVTVSS	high polyreactivity
QVQLVESGGGLVQAGGSLRLSCAASGNTFYSYAMGWYRQAPGKERELVAAITWGGRTKYADSVKGRFTISRDNAKNTVYLQMNSLKPEDTAVDYCAARLYHGKTKYDYWGQGTQVTVSS	high polyreactivity
QVQLVESGGGLVQAGGSLRLSCAASGNTFYVNAMGWYRQAPGKERELVATISKRGSSTYYADSVKGRFTISRDNAKNTVFLQMNSLKPEDTAVYYCNAEGPSYYYIIYDYWGQGTQVTVSS	high polyreactivity
QVQLVESGGGLVQAGGSLRLSCAASGNTFYVNVMGWYRHAPGKEREFVAAISTRGVSTSYADSVKGRFTISRDYAKNTVYLQMNRLKPEDTAVYYCAKRFLPPGRAVTYDYWGQGTQVTVSS	high polyreactivity
QVQLVESGGGLVQAGGSLRLSCAASGNTFYYYAMGWYRQAPGKERELVASITWRGGDTYYADSVKGRFTISRDNAKNTVYLQMNSQKPEDTAVFYFAKPRLGRYDSMSYLGDYAGYVYWGQGTQVTLSS	low polyreactivity
QVQLVESGGGLVQAGGSLRLSCAASGNTIFHYAMGWYRQAPGKERELVAAISSADSTYYADSVKGRFTISRDNAKNTVYLQMNSLKPEDTAVYYCAKDRPNRPDLYDYWGQGTQVTLSS	low polyreactivity
QVQLVESGGGLVQAGGSLRLSCAASGNTIKDYTMGWYRQAPGKERELVASINSGGSTNYADSVKGRFTISRDNPKNTVYLQMNSLKPEDTAVYYSAKRAWSDYNPIDYWGQGTQVTVSS	low polyreactivity
QVQLVESGGGLVQAGGSLRLSCAASGNTIYKYTMGWSRQAPGKERELVAVISSSSGSTYYADSVKGRFTISRDNAKNTVYLQMNSLKPEDTAVYYCNKRGWWDLRHDYWGQGTQVTVSS	low polyreactivity
QVQLVESGGGLVQAGGSLRLSCAASGNTLAANAMGWYRQAPGKERELVAAITYSGGSTYYADSVKGRFTISRDNAKNTVYLQMSSLKPEDTAVYDCNAPYVFSAGFDYWGQGTQVTVSS	low polyreactivity
